Experimental data reported in article PMC9896810, “Crk proteins activate the Rap1 guanine nucleotide exchange factor C3G by segregated adaptor-dependent and -independent mechanisms” (Cell Communication and Signaling : CCS, 2023).
Numbering of substitutions follows the chain as printed. Names and notes keep the numbering of the source.

T1: Src-phosphorylated C3G (pC3G), wild type (human, UniProt Q13905-1 4-1077, phosphotyrosines (phosphorylated in vitro by Src; sites not stated))
T1 sequence (looked up): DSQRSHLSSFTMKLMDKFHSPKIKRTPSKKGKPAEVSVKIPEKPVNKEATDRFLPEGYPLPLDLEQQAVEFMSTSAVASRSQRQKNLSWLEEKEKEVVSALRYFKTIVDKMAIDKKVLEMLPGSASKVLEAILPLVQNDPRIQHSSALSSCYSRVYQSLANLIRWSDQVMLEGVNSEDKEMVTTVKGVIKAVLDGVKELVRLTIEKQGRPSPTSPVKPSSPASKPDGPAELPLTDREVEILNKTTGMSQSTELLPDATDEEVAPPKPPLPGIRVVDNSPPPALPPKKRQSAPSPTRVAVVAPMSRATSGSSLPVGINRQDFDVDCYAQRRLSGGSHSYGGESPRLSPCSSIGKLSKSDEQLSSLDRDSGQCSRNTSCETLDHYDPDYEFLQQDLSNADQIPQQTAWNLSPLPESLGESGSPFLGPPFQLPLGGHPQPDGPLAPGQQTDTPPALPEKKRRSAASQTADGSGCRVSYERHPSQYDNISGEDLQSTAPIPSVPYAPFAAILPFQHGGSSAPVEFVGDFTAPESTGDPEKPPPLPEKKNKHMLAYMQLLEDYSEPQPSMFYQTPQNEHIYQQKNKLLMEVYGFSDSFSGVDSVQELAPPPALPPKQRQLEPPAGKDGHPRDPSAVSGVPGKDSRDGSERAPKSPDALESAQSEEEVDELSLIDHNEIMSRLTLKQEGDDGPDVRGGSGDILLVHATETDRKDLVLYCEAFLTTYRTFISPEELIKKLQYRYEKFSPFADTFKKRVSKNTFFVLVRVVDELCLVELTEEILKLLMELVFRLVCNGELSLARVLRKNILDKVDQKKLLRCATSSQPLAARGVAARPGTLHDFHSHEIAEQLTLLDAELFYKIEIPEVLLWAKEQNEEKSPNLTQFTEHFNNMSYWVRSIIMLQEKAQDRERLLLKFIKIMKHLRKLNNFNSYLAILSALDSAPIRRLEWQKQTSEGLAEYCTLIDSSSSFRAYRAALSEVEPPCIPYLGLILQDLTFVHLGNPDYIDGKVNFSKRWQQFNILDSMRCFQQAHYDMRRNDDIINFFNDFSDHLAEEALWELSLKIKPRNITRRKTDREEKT

T2: C3G full-length wild type (human, isoform a, residues 4-1077) (human, UniProt Q13905-1 4-1077)
T2 sequence (looked up): T1 sequence (looked up)

T3: Src-phosphorylated C3G-AAPA (pC3G-AAPA) (human, UniProt Q13905-1 4-1077, phosphotyrosines (phosphorylated in vitro by Src; sites not stated))
T3 chain: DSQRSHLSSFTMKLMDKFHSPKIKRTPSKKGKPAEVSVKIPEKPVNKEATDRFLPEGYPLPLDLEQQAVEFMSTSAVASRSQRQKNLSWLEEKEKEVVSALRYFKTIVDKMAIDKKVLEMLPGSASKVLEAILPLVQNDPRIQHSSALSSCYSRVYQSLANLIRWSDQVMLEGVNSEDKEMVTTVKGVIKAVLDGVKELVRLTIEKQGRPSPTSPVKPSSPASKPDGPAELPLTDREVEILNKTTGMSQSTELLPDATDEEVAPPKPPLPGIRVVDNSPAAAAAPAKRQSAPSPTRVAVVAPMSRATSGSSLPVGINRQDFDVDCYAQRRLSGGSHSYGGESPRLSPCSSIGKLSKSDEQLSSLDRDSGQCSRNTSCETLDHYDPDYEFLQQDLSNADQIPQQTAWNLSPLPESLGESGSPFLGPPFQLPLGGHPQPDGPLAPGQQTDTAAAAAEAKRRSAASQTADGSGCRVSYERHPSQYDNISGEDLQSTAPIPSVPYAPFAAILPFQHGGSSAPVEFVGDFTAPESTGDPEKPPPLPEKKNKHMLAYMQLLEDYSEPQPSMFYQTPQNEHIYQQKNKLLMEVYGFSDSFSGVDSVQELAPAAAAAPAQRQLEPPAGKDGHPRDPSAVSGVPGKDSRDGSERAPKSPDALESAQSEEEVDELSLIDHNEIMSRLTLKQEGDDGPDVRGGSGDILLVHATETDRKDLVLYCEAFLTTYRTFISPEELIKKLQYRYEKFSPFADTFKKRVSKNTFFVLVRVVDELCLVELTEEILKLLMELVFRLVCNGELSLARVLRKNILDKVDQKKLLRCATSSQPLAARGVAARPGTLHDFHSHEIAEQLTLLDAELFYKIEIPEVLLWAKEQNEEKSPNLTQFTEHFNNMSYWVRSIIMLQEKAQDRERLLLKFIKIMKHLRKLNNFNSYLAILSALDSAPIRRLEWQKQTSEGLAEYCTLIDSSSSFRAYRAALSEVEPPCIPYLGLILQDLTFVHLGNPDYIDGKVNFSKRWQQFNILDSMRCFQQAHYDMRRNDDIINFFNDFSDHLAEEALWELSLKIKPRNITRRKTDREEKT

B1: CrkL, full-length (human) (natural protein, UniProt P46109 1-303, looked up)
chain: MSSARFDSSDRSAWYMGPVSRQEAQTRLQGQRHGMFLVRDSSTCPGDYVLSVSENSRVSHYIINSLPNRRFKIGDQEFDHLPALLEFYKIHYLDTTTLIEPAPRYPSPPMGSVSAPNLPTAEDNLEYVRTLYDFPGNDAEDLPFKKGEILVIIEKPEEQWWSARNKDGRVGMIPVPYVEKLVRSSPHGKHGNRNSNSYGIPEPAHAYAQPQTTTPLPAVSGSPGAAITPLPSTQNGPVFAKAIQKRVPCAYDKTALALEVGDIVKVTRMNINGQWEGEVNGRKGLFPFTHVKIFDPQNPDENE
notes: Monomer by sedimentation velocity and DLS (theoretical mass 33.7 kDa); Purification 'in a similar manner' as C3G would include TEV cleavage of the tag; also called Crk-like protein; wild type CrkL; source: E. coli BL21 (DE3), purified (His-tagged, purified in a similar manner as C3G)
B2: CrkL-SH3N (residues 125-182) (domain or fragment, human, UniProt P46109 125-182, looked up)
chain: LEYVRTLYDFPGNDAEDLPFKKGEILVIIEKPEEQWWSARNKDGRVGMIPVPYVEKLV
notes: human CrkL, SH3N domain, residues 125-182, in pETEV15b; also called SH3N domain of CrkL; isolated SH3N domain; source: E. coli BL21 (DE3), purified (His-tagged, purified in a similar manner as C3G)
B3: GST-CrkL R39K (natural protein, human, UniProt P46109 1-303, looked up)
chain: B1 chain with R39K
notes: human CrkL, full-length, R39K; the results print 'R93K alone', the methods and the sentence before print R39K; also called R93K; source: E. coli BL21 (DE3), purified GST fusion

How the values were obtained:
[1] = molecular target: T1, Src-phosphorylated C3G (pC3G), wild type; test: cell-based or functional assay
[2] = molecular target: T2, C3G full-length wild type (human, …); test: cell-based or functional assay
[3] = molecular target: T1, Src-phosphorylated C3G (pC3G), wild type; test: cell-based or functional assay; remark: listed apart in the source
[4] = molecular target: T2, C3G full-length wild type (human, …); test: ITC; same three titrations of C3G with CrkL, global fit in SEDPHAT, three symmetric binding sites, microscopic kd; settings: both partners purified
[5] = molecular target: T1, Src-phosphorylated C3G (pC3G), wild type; test: ITC; full-length C3G or pC3G in the cell titrated with CrkL, CrkL fragments, CrkL-W160S or CrkII; 25 °C; 300 mM NaCl, pH 7.5; parameters in Table S11; settings: both partners purified
[6] = molecular target: T2, C3G full-length wild type (human, …); test: ITC; C3G in the cell titrated with CrkL; 25 °C; 300 mM NaCl, pH 7.5 (Tris-HCl or Na-phosphate); three titrations fitted one by one, independent-site model (MicroCal Origin); settings: both partners purified
[7] = molecular target: T2, C3G full-length wild type (human, …); test: AUC; sedimentation velocity of C3G with increasing CrkL; 20 mM Tris-HCl, 300 mM NaCl, pH 7.5, 20 °C, 48,000 rpm; isotherms fitted with three symmetric sites (Gilbert-Jenkins), microscopic kd; settings: both partners purified
C3G-AAPA-Y554H = C3G-AAPA-Y554H (human, UniProt Q13905-1 4-1077, Y554H); test: ITC; single-PRM mutants of C3G in the cell titrated with full-length CrkL or CrkL-SH3N; 25 °C; 1:1 model in SEDPHAT; N is the competent fraction of C3G; settings: both partners purified
[8] = molecular target: T3, Src-phosphorylated C3G-AAPA (pC3G-AAPA); test: as above; settings: both partners purified
[9] = molecular target: T1, Src-phosphorylated C3G (pC3G), wild type; test: pull-down; 30 µg GST-CrkL (full-length or SH3N) with 30 µg C3G on glutathione-agarose; 20 mM Tris-HCl, 150 mM NaCl, pH 7.5, 0.01% BSA; 30 min, 4 °C; washes with 0.1% Triton X-100; coomassie or western blot; settings: both partners purified

Row | Binder | GEF activity of pC3G (0.2 µM) on Rap1b:mant-dGDP with 5 µM CrkL, fold over pC3G alone [1] [fold] | AC50 of the dose-response activation of the GEF activity of C3G (1 µM) on Rap1b:mant-dGDP [2] [nM] | kmax of the dose-response activation of the GEF activity of C3G (1 µM) on Rap1b:mant-dGDP [2] [M⁻¹ s⁻¹] | AC50 of the dose-response activation of the GEF activity of pC3G (0.2 µM) on Rap1b:mant-dGDP [3] [µM] | kmax of the dose-response activation of the GEF activity of pC3G (0.2 µM) on Rap1b:mant-dGDP [3] [s^-1 µM^-1] | Kd [4] [nM] | Kd [5] [nM] | Kd [6] [nM] | stoichiometry N [6] | Kd [7] [nM] | koff [7] [s⁻¹] | Kd (C3G-AAPA-Y554H) [nM] | stoichiometry N (C3G-AAPA-Y554H) | stoichiometry N [8] | binding result [9]
1 | B1 | ~9 | 22400 | 13400 | 1.7 | 0.0342 | 2300 | 1300 | 2800 to 3600 | ~3 molecules of CrkL per molecule of C3G | 1400 | > 0.001 |  |  |  | 
2 | B2 |  | 26800 | 6300 | 12.8 | 0.0139 |  |  |  |  |  |  | 800 | ~0.5 molecules of SH3N per molecule of C3G-AAPA-Y554H | ~0.1 | 
3 | B3 |  |  |  |  |  |  |  |  |  |  |  |  |  |  | binds
